This is an account of results in publication PMC7283272, “Identifying the role of PrimPol in TDF-induced toxicity and implications of its loss of function mutation in an HIV+ patient”.

The data set concerns the target T1, PrimPol WT (UniProt Q96LW4 1-560).
T1 sequence: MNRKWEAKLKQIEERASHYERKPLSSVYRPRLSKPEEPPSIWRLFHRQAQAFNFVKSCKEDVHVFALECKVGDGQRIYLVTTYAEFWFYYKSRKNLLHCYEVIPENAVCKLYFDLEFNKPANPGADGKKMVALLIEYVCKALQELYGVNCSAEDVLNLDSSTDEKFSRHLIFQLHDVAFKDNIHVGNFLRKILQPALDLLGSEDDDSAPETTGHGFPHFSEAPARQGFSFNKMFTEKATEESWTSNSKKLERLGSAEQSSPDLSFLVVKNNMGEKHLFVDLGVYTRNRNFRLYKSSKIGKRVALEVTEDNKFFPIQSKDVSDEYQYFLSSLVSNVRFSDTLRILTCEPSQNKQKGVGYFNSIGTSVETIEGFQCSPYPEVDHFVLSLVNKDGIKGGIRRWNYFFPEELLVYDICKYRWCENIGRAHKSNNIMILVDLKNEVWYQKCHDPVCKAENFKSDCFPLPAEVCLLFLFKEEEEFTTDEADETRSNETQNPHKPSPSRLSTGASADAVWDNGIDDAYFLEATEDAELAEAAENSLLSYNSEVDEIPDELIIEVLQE
The experiment in a line: thermal shift (DSF, stabilization by DNA); 10 uM Mn2+; EMSA: Mn2+ present, buffer not given in the material. DSF: 5 uM protein, 5 uM dsDNA, 50 mM Tris pH 7.5, 300 mM NaCl, 0.5 uM TCEP, 5% glycerol, 10 uM MgCl2 or MnCl2, 4-95 C ramp. The conditions noted are these: protein: recombinant; tags: N-terminal His-TEV (tag cleaved); 20 bp, template 5' overhang 25 nt. For orientation: A gel shift assay detects complexes by their altered migration in electrophoresis.

B1: D20A/D45 primer/template (dsDNA)
DNA 1: GCCTCGCAGCCGTCCAACCA
DNA 2: GGACGGCATTGGATCGAGGTTGAGTTGGTTGGACGGCTGCGAGGC
On to B1, for which the binding result is given as “binds”.
